Test results: patent publication US20250186614A1, “COMPACT DRUG RESPONSIVE DOMAINS FOR REGULATION OF FUNCTION/ABUNDANCE AND DELIVERY OF POLYPEPTIDE PAYLOADS” (OBSIDIAN THERAPEUTICS, INC., priority 2022, published 2025)
Changes are numbered by the printed parent chain. Names and notes keep the numbering of the source. Each block holds one molecule with its values, some of them ahead of it.

Tests used:
FKBP13 = target: T1, FKBP13 (Homo sapiens, UniProt P26885); details: read-out: binding affinity for FKBP13; cited from earlier work
T1 sequence (P26885 22-142): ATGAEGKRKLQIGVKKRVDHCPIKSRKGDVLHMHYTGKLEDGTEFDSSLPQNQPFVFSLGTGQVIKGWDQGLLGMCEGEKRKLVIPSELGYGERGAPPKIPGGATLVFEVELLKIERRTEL

[1] = clinically approved dosages 0.1-0.3 mg/kg of body weight, tissue/organ transplants; cited from earlier work
Jurkat cells [2] = assay: Tacrolimus serum experiments: dose response of FKBP13 constructs under different serum concentrations, GFP MFI; assay type: cell-based; details: increasing FBS, FIGS. 51-54
Protocol: Incubation with increasing FBS results in 2 fold increase in Ec50 with 80% FBS.

Jurkat cells [3] = assay: Tacrolimus dose response of FKBP13-AcGFP-mCherry constructs stably transduced into Jurkat cells, GFP MFI by flow cytometry; assay type: cell-based
Outline: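 Jurkat E6-1 cells lentivirally transduced with FKBP13-AcGFP-mCherry constructs to 10-25% mCherry+ (day 5) were dosed with tacrolimus. GFP geometric MFI in mCherry+ cells was measured by flow cytometry and fitted to dose-response curves.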

HEK293 cells = assay: Tacrolimus dose response of FKBP13 constructs transiently transfected into HEK293 cells, Celigo Image Cytometer; assay type: cell-based; details: for performance / drug responsiveness in tacrolimus dose response: FIGS. 5, 6, 8
Excerpt: In another experiment, several FKBP13 DRD constructs were transiently transfected into HEK293 cells, as described above, and analyzed using a Celigo Image Cytometer (Nexcelom, Lawrence, MA).
To test the effects of other substitutions instead of methionine at residue number 54 and leucine at position 93 FKBP13 DRD constructs were generated and were transiently transfected into HEK293 cells, as described above, and analyzed using a Celigo Image Cytometer (Nexcelom, Lawrence, MA).
In another experiment, to explore the possibility of further truncating FKBP13, constructs (FKBP-044, FKBP-083, FKBP-084, FKBP-085, and FKBP-086) were transiently transfected into HEK293 cells, as described above, and analyzed using a Celigo Image Cytometer (Nexcelom, Lawrence, MA). A combination of DRD-genic M54A with truncation of the N-terminal histidine lowers basal (FKBP-083).
In another experiment, several constructs (FKBP-044, FKBP-092, FKBP-093, FKBP-094, FKBP-095, FKBP-096 and FKBP-097) designed to explore additional DRD-genic mutations were transiently transfected into HEK293 cells, as described above, and analyzed using a Celigo Image Cytometer (Nexcelom, Lawrence, MA).
Other constructs (FKBP-091, FKBP-098, FKBP-099, FKBP-100, and FKBP-101) were transiently transfected into HEK293 cells, as described above, and analyzed using a Celigo Image Cytometer (Nexcelom, Lawrence, MA).
(§1) In another experiment, several constructs (FKBP-091, FKBP-102, FKBP-103, FKBP-104, FKBP-105 and FKBP-106), designed to combine the binding site mutation identified in FKBP-091 with novel DRD-genic mutations, were transiently transfected into HEK293 cells, as described above, and analyzed using a Celigo Image Cytometer (Nexcelom, Lawrence, MA). […]
as §1, with “several other” for “several”, “FKBP-107, FKBP-108, FKBP-109, FKBP-110,” for “FKBP-102, FKBP-103, FKBP-104, FKBP-105”, “FKBP-111),” for “FKBP-106),”

Jurkat cells [4] = assay: Sirolimus (rapamycin) dose response of FKBP13 constructs stably transduced into Jurkat cells, flow cytometry; assay type: cell-based; details: rapamycin, Table 14
Protocol: Normalized EC50 values were calculated from the mCherry normalized GFP MFI values, which accounted for any differences in mCherry intensity between samples.

[5] = tacrolimus dose response, Jurkat cells stably transduced (FIG. 10), Table 5

Molecule: C=CC[C@@H]1/C=C(\C)C[C@H](C)C[C@H](OC)[C@H]2O[C@@](O)(C(=O)C(=O)N3CCCC[C@H]3C(=O)O[C@H](/C(C)=C/[C@@H]3CC[C@@H](O)[C@H](OC)C3)[C@H](C)[C@@H](O)CC1=O)[C@H](C)C[C@@H]2OC [Tacrolimus, tacrolimus]
Kd (FKBP13): 166 nM
Cmax [1]: 20 to 68 ng/mL
increase in Ec50 with 80% FBS (Jurkat cells [2]): 2 fold

B1: FKBP-068: FKBP13 DRD Q72R, Q84E, A117H, M54S; SEQ ID NO: 24 (protein)
chain: HCPIKSRKGDVLHSHYTGKLEDGTEFDSSLPRNQPFVFSLGTGEVIKGWDQGLLGMCEGEKRKLVIPSELGYGERGHPPKIPGGATLVFEVELLKIER
modifications: Description of sequence: FKBP13-AcGFP-mCherry Fusion; Construct Name: FKBP-068; FKBP13 DRD in Construct : FKBP13 (mutated to match FKBP12 active site - Q72R Q84E A117H) (DRD - M54S)
Fold Change (Jurkat cells [3]; [5]): 43.62
performance / drug responsiveness in tacrolimus dose response (HEK293 cells): closest in performance to the original M54A substitution

EC90 (Jurkat cells [3]; read-out: Tacrolimus EC90, tacrolimus, Table 14): 111 nM
EC90 (Jurkat cells [4]; read-out: Rapamycin EC90): 398 nM
B2: FKBP-091: FKBP13 DRD Q72R, Q84E, A117W, M54A; SEQ ID NO: 41 (protein)
chain: B1 chain with S14A, H77W
modifications: Description of sequence: FKBP13-AcGFP-mCherry Fusion; Construct Name: FKBP-091; FKBP13 DRD in Construct : FKBP13 (mutated to match FKBP12 active site Q72R Q84E A117W) (DRD - M54A)
EC90 (Jurkat cells [3]; read-out: Tacrolimus EC90 (Norm), tacrolimus, normalized, Table 14): 117 nM
Fold Change (Jurkat cells [3]; [5]): 12.36
Fold Change (Jurkat cells [3]; tacrolimus, Jurkat cells stably transduced, Table 6): 11.29
Tacrolimus FC (Jurkat cells [3]; tacrolimus, fold change, Table 14): 12.4
performance / drug responsiveness in tacrolimus dose response (HEK293 cells): superior drug responsiveness
Rapamycin FC (Jurkat cells [4]; fold change): 3.2
EC90 (Jurkat cells [4]; normalized, read-out: Rapamycin EC90 (Norm)): 414 nM

B3: FKBP-083: FKBP13 trunc1 DRD Q72R, Q84E, A117H, M54A; SEQ ID NO: 33 (protein)
chain: CPIKSRKGDVLHAHYTGKLEDGTEFDSSLPRNQPFVFSLGTGEVIKGWDQGLLGMCEGEKRKLVIPSELGYGERGHPPKIPGGATLVFEVELLKIER
modifications: truncated (trunc1); Description of sequence: FKBP13-AcGFP-mCherry Fusion; Construct Name: FKBP-083; FKBP13 DRD in Construct : FKBP13 trunc1 (mutated to match FKBP12 active site - Q72R Q84E A117H) (DRD - M54A)
Basal (HEK293 cells; FIG. 7): lowers basal
